In the nanobody polyreactivity screen of Harvey et al. (2022):

Assay: yeast display, Sf9 membrane polyspecificity reagent, FACS + sequencing; frameworks hold sequencing errors
How it was run: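 In a synthetic yeast display library (Saccharomyces cerevisiae BJ5465), nanobody expression was induced with galactose for 36–48 hours. FACS gates were set low and high (top ~1%) using anti-HA fluorescence for expression and streptavidin fluorescence for binding of the Sf9 membrane reagent. Each polyreactivity label is drawn from the gate of origin.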

| Sequence | polyreactivity (PSR sort gate) |
| --- | --- |
| QVQLVESGVRLVQAGGSLRLTCAASGNTFVAYAMGWYRQAPGKERDLVAGITRGGTTYYADSVKGRFTISRDNAKNSVYLQMNSLKPEDTAEYDCAARLGYRYNYWGQGTQVTVSS | high polyreactivity |
| QVQLVESGVVLVQAGGSLRLSCAASGYTFRVYTMGWYRQAPGKERELVAAISRRGSRTYYADSVKGRFTISRDYAKNTVYLQKNSLKPEDTAVYYCAAGIPYPDDYWGLGTQVTVSS | high polyreactivity |
| QVQLVESLGGLVQAGGSLRLSCAASGFTFTNYAMGWYRQAPGKERELVAAINSSGSTNYADSVKGRFTISRDNAKNTVYLQMNSLKPEDTAVYYCAVDYSYWVHGFWDDYDYWGQGTQVTVSS | low polyreactivity |
| QVQLVESLGGLVQAGGSLRLSFAASGFIFAKYAIGWYRKAAGKERELVAAITSGGSTNYADSVKGRFTISRDNAKNTVFLQMNSLKPEDTAVYYCNRGFDWCYRYRHYDYCGQGTQVTVSS | low polyreactivity |
| QVQLVESPGRLVQAGGSLRLSCDPTGRTFKIYALGSSRQAPGKESELVAAIRRSGGNTYYADSVKGRFTISRDNAKNTVYLQMNSLKPEDTAVYYCAVGRGSLRGRTDGGYWGQGTQVTVSS | high polyreactivity |
| QVQLVESRGALVQAGGSLRLSCAASGPIFDSYAMGWYRQATGKERELVATISRDSASTYYADSVKGRLTISRDNAKNTVYLQMNSLNPADTAVYYCSAGGSSSWAYNYWGHGTQVTVSS | low polyreactivity |
| QVQLVESRGCLVQAGGSLRLSCAASGSIFVNNAMGWYRPAPGYERELCAAITSGTRTNYADSVKGRFTISRDNAKNTVYLQMNSLKPEDTAVYYCATESAQYSWYYPGHPGYGYWGQGSQVTVSS | low polyreactivity |
| QVQLVESRGCLVQAGGSLRLSCAASGSISIKNAMGWYRQAPGKERELVATITYNGGSTYYADSVKGRFTISRDNAKNTVYLQMNSLKPEDTAVYYCARDAFEPYDVGEYYYWGQGTQVTVSS | low polyreactivity |
| QVQLVESRGGFVQARCSLRLSCDASGRIFYYYGMGWYRQAPGKERELVAAITRNTGRTYYADSVKGRFTISRDNAKNTVYLQMNSLKPEDSSVYYFARDRRTWSPYTRAYRRNDYWVQGTQVTVSS | high polyreactivity |
| QVQLVESRGGLVHAGGSLRLSCAASGSIFQSYYMGWYRQAPGKERELVAAISWSGSTTYYADSVKGRFTISRDNAKNTVYLQMNSLKPEDTAVYYCAVDSNPPDWWAVIYGYWGQGTQVTVSS | low polyreactivity |
| QVQLVESRGGLVQAGGSHRLSCAASGSIFGANAMGWYRQAPGKERELVAAITSGSGTNYADSVKGRFTISRDNAKNTVYLQMISLNPEDTAVYYCAAVVLYQGRYDYWGQGTQVTVSS | low polyreactivity |
| QVQLVESRGGLVQAGGSLPLSCAASGSIFSRNALGWYRQAPGKERELVAAITWSGGSTYYADSVKGRFTISRDNAKNTVYLQMNSLKAEDTAVYYCNAKRSSRIKQLEYDYWGKGTQVTVSS | high polyreactivity |
| QVQLVESRGGLVQAGGSLRLRCAASGFILDTYGIVWYRQAPGKERELVAAIYQSDVSTYYADSVKGRFTISRDNAKNTVYLQMNSLKPEDTAVYYCAADRGVLRWFCQVLYDYWGQGTQVTVSS | low polyreactivity |
| QVQLVESRGGLVQAGGSLRLSCAASGFIFGFYALGWYRQEPGTEMELVAAITWDGGSTYYADSVKGRFTISRDNAKNTVYLQMNSLKPEDTAVYYCAAYFQYQDVDYDYWGQGTQVTVSS | high polyreactivity |
| QVQLVESRGGLVQAGGSLRLSCAASGFIFYWNAMGWYRQAPGKEREFVATITWSGGSTYYADSVKGRFTISRDNAKNTVYLQMNSLKPEDTAVYYCNADVTWEDDYCGQGTQVTVSS | low polyreactivity |
| QVQLVESRGGLVQAGGSLRLSCAASGFTFWDNVIGWYRQAPGKERELVAAISNSGGRTYYADSVKGRFTISRDNEKNTVYLQMNILKPEDTAVYYCARYGRRHGYPILDYWGQGTQVTVSS | high polyreactivity |
| QVQLVESRGGLVQAGGSLRLSCAASGGTFSLNAMGWYRQAPGKERELVAANSKRSSTTYYADSVKGRFTISRDNAKNTVYLQMNSLKPEDTAVYYCAARVLRSRKPGPGYDYWGQGTQVTVSS | high polyreactivity |
| QVQLVESRGGLVQAGGSLRLSCAASGIIFHFYAMGWYRQAPGKERELVAAINSRGGSTYYADSVKGRFTISRDNAKNTVYLQMNSLKPEDTAVYYCAAQYLFYGHDYWGQGTQVTVSS | low polyreactivity |
| QVQLVESRGGLVQAGGSLRLSCAASGLIFASYAMGWNRQAPGKERELVAAISWSGGSTYYADSVKGRFTISRDNAKNTVYLQMNSLKPEDTAVYYCAAKRYAYGSLDYWGQGTQLTVSS | high polyreactivity |
| QVQLVESRGGLVQAGGSLRLSCAASGLTFLYNAMGWYRQAPGKERELVAAISQSAGSTYYADSVKGRFTISRDNAKNTVYLQMNSLKPEDTAVYYCAAEWDTPDLVIYDYWGQGTQVTVSS | low polyreactivity |
| QVQLVESRGGLVQAGGSLRLSCAASGRIFETNTMGWYRQAPGKEREFVAAITFSGGRTNYADSVKGRFTISRDNAKNTDYLPMNSLKPEDTAVYYCAAAGRRRKYYYWGQGTQVTVSS | high polyreactivity |
| QVQLVESRGGLVQAGGSLRLSCAASGRIFRYNAMGWDRQAPGKERELVAAITRSGGRTYYADSVKGRFTISRDNAKNTVYLQMNSLKPEDTAVYYCAADKYPSSPYVGDVDYWGQGTQVTVSS | high polyreactivity |

| Sequence | polyreactivity (PSR sort gate) |
| --- | --- |
| QVQLVESRGGLVQAGGSLRLSCAASGRIFYGYAMGGYRQAPGKERELVAGISKRGGTTRYADSVKGRFTISRDNAKNTVYLQMNSLKPEETAVSSCAAESFGLYASPGEEYWGQGTQVTVSS | high polyreactivity |
| QVQLVESRGGLVQAGGSLRLSCAASGRTFLYNAMGWYRQAPGKERELVAAITDGGNTYYADSVKGRFTISRDNAKNTVYLHMKSLNPEDTAVYYCNAYVLFYTYFTRGRFDFDYWGQGTQVTVSS | low polyreactivity |
| QVQLVESRGGLVQAGGSLRLSCAASGRTRFYAMGRYIQAPGKERELVAVINASGDSTYYADSVKGRFTISRDNAKITVYLQMNSLKPEDTAVYYCAGDNRGEYDYWGQGTQVTVSS | low polyreactivity |
| QVQLVESRGGLVQAGGSLRLSCAASGSIFGTNAMGRNRQAPGKERELVAAINSGGSTNYADSVKGRFTISRDNAKNTVYLQMNSLKPEDTAVYYCAADEGLWSPSRNAYDYDYWGQGTQVTVSS | low polyreactivity |
| QVQLVESRGGLVQAGGSLRLSCAASGSIFRGYAMGWYRQAPGKERELVAAIRRGVITNYADSVKGRFTISRDNAKNTVYLQMNSLKPEDTAVYYCYAVRRWRTSQFDYWGQGTLVTVSS | low polyreactivity |
| QVQLVESRGGLVQAGGSLRLSCAASGSTFNYYVMGWYRQAPGKERELVAAISRSGTSTYYADSVKGRFTISRDNAKNTVYLQMNSLKPEDTAVYYCAAYQPYYARTELDYWGQGTQVTVSS | high polyreactivity |
| QVQLVESRGGLVQAGGSLRLSCAASGSTFRYYAMGWYRQAPGKERELVATITARGGSTYADSVKGRFTISRDNAKNTVYLQMNSLKPEDTAVYYCAKRYGRYWDSTYSGDYDYWGQGTQVTVSS | high polyreactivity |
| QVQLVESRGGLVQAGGSLRLSCAASGSTFYIYAMGWYRQAPGKERELVAAIDWNDGSTYYADSVKGRFTISRDNAKNTVYLQMNSLKPEDTAVYYCAAAIYIYRDGTYDYWGQGTQVTVSS | high polyreactivity |
| QVQLVESRGGLVQAGGSLRLSCAATGSIFFSNTMGWYRQAPGTEREMVAAITSTGTTNYADSVKGRFTISRDNAKKTVYLQMNSLKPEDTAVFYCAVRARRWRYNYWGQGTQVTVSS | high polyreactivity |
| QVQLVESRGGLVQAGGSLRLSCASSGFTFSINAMGWYRQAPGNERELVASITWSGGRTYYADSVKGRFTISRDNAKNTVYLQMNSLKPEDTAVYYCAARSYGTSTYDYWGQGTQVTVSS | high polyreactivity |
| QVQLVESRGGLVQAGGSLRLSCATSGIFVVYALGWYRQAPGKVRELVAAISSGVSTSYADSVKGRFTISRENAKNTVYLQMNSLKPEDTAVYYCNTLWGHKFIVPFRTREFYYWGQGTQVTVSS | low polyreactivity |
| QVQLVESRGGLVQAGGSLRLSCSASGIIFEYYAMGWYRQAPGKERELVAAISSDTSTNYADSVKGRFTISRDNAKNTVYLQMNSLKPEDTAVYYCNADAYYDTYGICVGTDYDYWGQGTQVTVSS | low polyreactivity |
| QVQLVESRGGLVQARGSLRLSCAASGRTFYPYAMGWYSPAPGKERELVATITGSGTTTYYADSVKGRFTLSRDNGNNTVYLQMNRRKPEDTAVYYSAADVWEVVTPYGTIDDDYWRQGTQVTVSS | high polyreactivity |
| QVQLVESRGGLVQARGSLRLSCAASGSTLFRYTKGWYRQAPGKERELVAAITRSGGNTFYADSVKGRFTISRDNSKNTVYLQMNSLKPEDTAVYYCAARARYVNCQGFDYWGQVTQVTVSS | high polyreactivity |
| QVQLVESRGRLVQAGGSLRLSCAASGSIFGTYAMGWYRHAPGKERELVAAISWSDGSTYYADSVKGRFTISRDNAKYTVYLQMNSLKPEATEVYFCSKVYRSIGANVSRYGLSYYYWGQGTQVTVSS | low polyreactivity |
| QVQLVESRRGLVQAGGSLRLSCAASGSIFSGYVMGRYRKAPGKETELVAAITWSGGRTYYADSVKGRFTISRDYAKNTVYLQMNSLKPEDTAVYYCAKRNIKSSGYYYWGQGTQVTVSS | high polyreactivity |
| QVQLVESRSGIVQAGRSLRLSCAASGSIFGSYVMGWYRQAPGKERELVAAITVRTGTTYYADSVKGRFTISLDNAKNTVYLQMKRLKPEDTAVYYCDSRYGPKYGYWGQGNQVTVSS | high polyreactivity |
| QVQLVESSAGLVQAGGSLRLSCDASGSTFFYYAMGWYRQAPGKERELVAAISLSDGNTYYADSVKGRFTISRDNAKNTVYLQMNSLKPEDTAVYYCNRVGSQSMKYWGQGTQVTVSS | low polyreactivity |
| QVQLVESSGGLVQAGGRLRLSCAASGSTFRGNAMGWYRQAPGKERELVAAITGSGGRTYYADSVKGRFTISRDNAKNTVYLQMNSLKPEDTAVYYCAARTPNIGGIYGYWGQGTQVSVSS | high polyreactivity |
| QVQLVESSGGLVQAGGSLRLICAASGRIFSRYPMGWYRKAPGKERELVAAITYSGGNTYYADSVKGRFTISRDYAKNTVYLQMNSLKPEDTAVYYCNAYRPYYSYVSHEHYYWGQGTQVTVSS | high polyreactivity |
| QVQLVESSGGLVQAGGSLRLSCAASGSIFPSNAMGWYRQAPGKERELVARITGGGGNTYYADSVKGRFTISRDNAKNTVYLQMNSLKPEDTAVYYCAADYTNWKTGSNEMYYWGQGTQVTVSS | low polyreactivity |
